# B1: CCL5 ligand (ligand)
# chain: SPYSSDTTPCCFAYIARPLPRAHIKEYFYTSGKCSNPAVVFVTRKNRQVCANPEKKWVREYINSLEMS
# Target: GPR75-GFP10-11 modified protein complex (UniProt O95800 1-395; P42212 3-196 = GFP)
# Test: SPR; steady state affinity
binder,measurement,value
B1,Kd,0.388 nM
